The experiment addresses thrombin. Nature of the experiment: chromogenic thrombin amidolytic activity assay; tight-binding model (Morrison equation).

For orientation: Ki means the equilibrium dissociation constant of an inhibitor or competing ligand from its target. Low readings indicate higher affinity, high ones lower affinity.

Non-standard residues stand in square brackets, D forms with d. sY = N[C@@H](Cc1ccc(OS(=O)(=O)O)cc1)C(=O)O

B1: chimadanin with a single biosynthesized sulfotyrosine at Tyr28 (peptide)
chain: MQPKEKTKGVEVEGNPATLISARQMDVSYDEYEDNGPDVIPGEPAKPRGGPKNGAASGKFDQIPDFSSESHHHHHHH
modifications: sulfotyrosine at Tyr28 (counted without the initiator Met; residue 29 of SEQ ID NO: 107 as printed)
Molecule B1 displayed a Ki of 0.6 nM.

B2: wildtype chimadanin (peptide)
chain: B1 chain
B2 showed a Ki of 12.9 nM.

B3: chimadanin doubly sulfated at both Tyr28 and Tyr31 (peptide)
chain: B1 chain
modifications: sulfotyrosine at Tyr28 and Tyr31 (counted without the initiator Met; residues 29 and 32 of SEQ ID NO: 107 as printed)
Molecule B3 gave a Ki of 0.1 nM.

B4: chimadanin with a single biosynthesized sulfotyrosine at Tyr31 (peptide)
chain: B1 chain
modifications: sulfotyrosine at Tyr31 (counted without the initiator Met; residue 32 of SEQ ID NO: 107 as printed)
For the molecule B4, the Ki came out at 1.5 nM.

B5: wildtype madanin-1 (peptide)
chain: MYPERDSAKEGNQEQERALHVKVQKRTDGDADYDEYEEDGTTPTPDPTAPTAKPRLRGNKPHHHHHH
As for B5, the inhibitory constant (Ki) is 16 nM.

B6: madanin-1 with a single sulfotyrosine at Tyr32 (peptide)
chain: MYPERDSAKEGNQEQERALHVKVQKRTDGDAD[sY]DEYEEDGTTPTPDPTAPTAKPRLRGNKPHHHHHH
For B6, the Ki is 1.3 nM.

B7: madanin-1 sulfated at both Tyr32 and Tyr35 (peptide)
chain: MYPERDSAKEGNQEQERALHVKVQKRTDGDAD[sY]DE[sY]EEDGTTPTPDPTAPTAKPRLRGNKPHHHHHH
B7: the Ki was 0.5 nM.

B8: madanin-1 with a single sulfotyrosine at Tyr35 (peptide)
chain: MYPERDSAKEGNQEQERALHVKVQKRTDGDADYDE[sY]EEDGTTPTPDPTAPTAKPRLRGNKPHHHHHH
In turn, B8 had an inhibition constant Ki of 6.1 nM.

The values are drawn from patent publication US20240344040A1, “PROKARYOTIC AND EUKARYOTIC CELLS WITH BIOSYNTHESIZED SULFOTYROSINE FOR GENETIC INCORPORATION” (William Marsh Rice University, priority 2023, published 2024).
